Experimental findings from patent US20230322958A1 (Genentech, published 2023) are described below.

The target in one assay is T1, huNotch1 (human).
T1 construct: The entry named huNotch1 is a tagged EGF-repeat fragment; also called human Notch1
T1 chain: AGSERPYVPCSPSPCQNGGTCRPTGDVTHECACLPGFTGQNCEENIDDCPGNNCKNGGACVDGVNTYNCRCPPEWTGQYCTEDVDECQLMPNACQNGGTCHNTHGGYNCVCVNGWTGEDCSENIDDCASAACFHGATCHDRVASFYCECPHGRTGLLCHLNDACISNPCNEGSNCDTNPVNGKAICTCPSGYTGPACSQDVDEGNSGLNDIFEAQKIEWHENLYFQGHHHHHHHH
The assay can be described thus: SPR.

The next assay addresses T2, huNotch3 (human).
T2 construct: The entry named huNotch3 is a tagged EGF-repeat fragment; also called human Notch3
T2 chain: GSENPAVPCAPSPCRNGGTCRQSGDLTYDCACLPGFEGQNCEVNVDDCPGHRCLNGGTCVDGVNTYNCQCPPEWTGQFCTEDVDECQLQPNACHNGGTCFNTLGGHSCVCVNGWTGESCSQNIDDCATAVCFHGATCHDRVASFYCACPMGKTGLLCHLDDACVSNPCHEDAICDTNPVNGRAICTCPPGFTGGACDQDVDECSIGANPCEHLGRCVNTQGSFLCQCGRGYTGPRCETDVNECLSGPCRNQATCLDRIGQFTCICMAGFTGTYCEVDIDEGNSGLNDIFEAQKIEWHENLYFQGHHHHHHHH
Kind of assay: SPR. A general note: SPR reads the build-up and loss of mass on a sensor chip optically.

Assay [1] has as its target human Notch2 on U-87 MG cells (human, UniProt Q04721 26-2471). Kind of assay: cell-based or functional assay.
Another assay addresses T3, huNotch2-EGF6-10 (human, UniProt Q04721 219-418).
T3 construct: also called human Notch2 EGF6-10
T3 sequence: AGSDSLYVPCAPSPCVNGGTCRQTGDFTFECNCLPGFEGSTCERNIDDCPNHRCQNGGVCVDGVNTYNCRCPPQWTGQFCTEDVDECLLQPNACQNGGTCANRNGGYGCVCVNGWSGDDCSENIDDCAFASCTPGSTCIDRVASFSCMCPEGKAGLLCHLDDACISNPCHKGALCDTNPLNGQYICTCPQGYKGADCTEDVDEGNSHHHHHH
Kind of assay: SPR BIAcore T200, antibody captured on protein A, 37 C.

Sequence of human Notch2 on U-87 MG cells (Q04721 26-2471): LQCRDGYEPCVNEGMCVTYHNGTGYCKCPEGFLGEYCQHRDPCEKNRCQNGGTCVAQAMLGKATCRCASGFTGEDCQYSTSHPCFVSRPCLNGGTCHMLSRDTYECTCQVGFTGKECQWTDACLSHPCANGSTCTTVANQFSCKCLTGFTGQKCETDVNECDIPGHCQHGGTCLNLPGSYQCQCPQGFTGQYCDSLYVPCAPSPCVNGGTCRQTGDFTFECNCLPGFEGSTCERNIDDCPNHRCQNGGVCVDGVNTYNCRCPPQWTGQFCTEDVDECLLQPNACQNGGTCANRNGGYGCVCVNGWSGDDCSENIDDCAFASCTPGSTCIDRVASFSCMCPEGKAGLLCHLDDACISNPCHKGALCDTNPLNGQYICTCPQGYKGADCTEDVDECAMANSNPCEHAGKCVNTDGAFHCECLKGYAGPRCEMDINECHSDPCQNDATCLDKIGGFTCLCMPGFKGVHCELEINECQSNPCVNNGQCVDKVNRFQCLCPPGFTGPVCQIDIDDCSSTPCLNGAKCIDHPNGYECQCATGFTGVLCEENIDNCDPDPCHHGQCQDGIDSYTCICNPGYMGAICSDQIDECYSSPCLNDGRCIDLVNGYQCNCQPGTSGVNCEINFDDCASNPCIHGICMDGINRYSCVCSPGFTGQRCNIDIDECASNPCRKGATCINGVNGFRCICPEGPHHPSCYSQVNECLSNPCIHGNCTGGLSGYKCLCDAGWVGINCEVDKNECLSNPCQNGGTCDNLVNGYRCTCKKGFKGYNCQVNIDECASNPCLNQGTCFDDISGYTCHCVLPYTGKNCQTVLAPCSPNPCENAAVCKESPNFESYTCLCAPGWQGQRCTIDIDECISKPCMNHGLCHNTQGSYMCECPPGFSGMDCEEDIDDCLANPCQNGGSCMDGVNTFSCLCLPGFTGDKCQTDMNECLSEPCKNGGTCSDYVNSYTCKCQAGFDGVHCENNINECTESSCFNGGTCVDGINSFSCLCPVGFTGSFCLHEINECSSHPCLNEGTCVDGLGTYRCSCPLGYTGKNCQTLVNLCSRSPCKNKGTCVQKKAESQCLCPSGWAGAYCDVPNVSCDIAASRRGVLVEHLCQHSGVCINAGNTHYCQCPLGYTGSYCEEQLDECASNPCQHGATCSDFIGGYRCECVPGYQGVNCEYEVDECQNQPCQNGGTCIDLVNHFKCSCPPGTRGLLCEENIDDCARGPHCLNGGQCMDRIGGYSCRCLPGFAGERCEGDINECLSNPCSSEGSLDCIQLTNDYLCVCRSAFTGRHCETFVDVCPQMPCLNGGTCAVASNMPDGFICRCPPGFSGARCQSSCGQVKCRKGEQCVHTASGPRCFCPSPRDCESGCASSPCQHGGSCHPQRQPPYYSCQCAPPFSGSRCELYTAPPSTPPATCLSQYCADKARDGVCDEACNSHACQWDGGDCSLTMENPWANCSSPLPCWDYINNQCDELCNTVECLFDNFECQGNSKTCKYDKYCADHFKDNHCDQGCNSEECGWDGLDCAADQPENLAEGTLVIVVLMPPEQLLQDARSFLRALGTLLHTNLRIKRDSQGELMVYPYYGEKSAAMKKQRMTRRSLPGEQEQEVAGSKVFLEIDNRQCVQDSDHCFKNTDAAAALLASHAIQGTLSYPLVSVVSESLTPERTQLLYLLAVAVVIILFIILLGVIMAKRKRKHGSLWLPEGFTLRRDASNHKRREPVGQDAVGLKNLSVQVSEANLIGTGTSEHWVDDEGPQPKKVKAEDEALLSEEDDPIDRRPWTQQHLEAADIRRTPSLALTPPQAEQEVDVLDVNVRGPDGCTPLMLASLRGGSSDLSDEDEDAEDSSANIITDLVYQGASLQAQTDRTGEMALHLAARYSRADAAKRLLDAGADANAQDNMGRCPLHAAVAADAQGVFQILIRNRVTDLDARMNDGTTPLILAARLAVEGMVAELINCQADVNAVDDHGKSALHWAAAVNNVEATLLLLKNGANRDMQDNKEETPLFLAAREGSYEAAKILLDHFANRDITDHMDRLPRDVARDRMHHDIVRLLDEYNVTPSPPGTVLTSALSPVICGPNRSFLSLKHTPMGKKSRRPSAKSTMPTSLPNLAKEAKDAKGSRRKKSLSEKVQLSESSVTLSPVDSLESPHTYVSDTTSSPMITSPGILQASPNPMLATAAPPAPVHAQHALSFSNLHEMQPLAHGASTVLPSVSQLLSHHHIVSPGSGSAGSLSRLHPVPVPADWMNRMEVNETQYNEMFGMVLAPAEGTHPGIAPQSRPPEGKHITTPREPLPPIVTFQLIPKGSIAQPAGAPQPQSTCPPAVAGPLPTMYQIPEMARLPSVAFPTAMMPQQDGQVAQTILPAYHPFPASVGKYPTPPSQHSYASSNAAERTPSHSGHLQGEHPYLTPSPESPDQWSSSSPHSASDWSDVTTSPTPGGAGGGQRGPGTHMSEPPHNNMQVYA

B1: hu1B2.v101 (antibody, V domains shown)
VH: EVQLVESGGGLVQPGGSLKLSCAVSGFTFSDFYMEWVRQASGKGLEWVAAQRNKANDFSIVYSASVKDRFTISRDDSKSTLYLQMNSLKTEDTAVYYCSRDGGRWGLDAWGQGTLVTVSS
VL: DIQMTQSPSSVSASVGDRVTITCQTSEDIYSGLAWYQQKPGKSPKLLIYGASRLQDGVPSRFSGSGSGTDYTLTISSLQPEDFATYYCQQGFKYPLTFGGGTKVEIK
notes: Human IgG1 backbone
One may read the Kd as a measure of binding affinity in units of concentration. Low readings indicate tighter binding, high ones weaker binding. In general, koff refers to a measure of how fast the partners let go of each other. Read a high koff as a short-lived complex. As usually defined, the kon is the second-order rate constant of association. Read a high kon as fast association. Consider B1, for which the binding result in the assay with huNotch1 is listed as “no binding”. Further, the binding result with huNotch3 is listed as “no binding”. Further, in assay [1], the “Jagged1 IC50” value stood at 3.02 nM. In the assay with huNotch2-EGF6-10, the affinity, expressed as Kd, was 2.84 nM; the off-rate (koff) turned out to be 0.000813 s⁻¹; the kon turned out to be 286000 M⁻¹ s⁻¹.

B2: hu1B2.v103 (antibody, V domains shown)
VH: EVQLVESGGGLVQPGGSLKLSCAVSGFTFSDFYMEWVRQASGKGLEWVAAQRNKANDFSIVYSASVKDRFTISRDDSKSTLYLQMNSLKTEDTAVYYCSRDGGKWGLDAWGQGTLVTVSS
VL: DIQMTQSPSSVSASVGDRVTITCQTSEDIYSGLAWYQQKPGKSPKLLIYGASRLQDGVPSRFSGSGSGTDYTLTISSLQPEDFATYYCQQGFKYPLTFGGGTKVEIK
notes: Human IgG1 backbone
As for B2, the binding result with huNotch1 is reported as “no binding”. In addition, the binding result in the assay with huNotch3 is “no binding”. Also, the “Jagged1 IC50” value in assay [1] was 1.8 nM. In the assay with huNotch2-EGF6-10, binding was put at a Kd of 3.08 nM, the koff stood at 0.000817 s⁻¹ and the on-rate constant (kon) was determined as 265000 M⁻¹ s⁻¹.
